{"source": "paper doi:10.1101/2021.06.16.448687", "about": "(bioRxiv, 2021)", "proteins": {"B1": {"name": "stabilized H176C form of the soluble human LLT1 ectodomain (Gln72-Val191), glycosylated (domain or fragment, UniProt Q9UHP7 72-191, looked up)", "chain": "QAACPESWIGFQRKCFYFSDDTKNWTSSQRFCDSQDADLAQVESFQELNFLLRYKGPSDHWIGLSREQGQPWKWINGTEWTRQFPILGAGECAYLNDKGASSARCYTERKWICSKSDIHV", "modifications": "GlcNAc2Man5 N-glycans"}}, "target": "the molecule itself", "test": "AUC"}
{"protein": "B1", "values": [{"measurement": "stoichiometry N", "result": 2}]}
